Results taken from US20050048614A1, “Biosynthetic oncolytic molecules and uses therefor” (Children's Medical Center Corporation, priority 2000, published 2005).

Legend:
[1] = test system: microtubules; experiment: effect on microtubules in treated cells; type: cell-based
Description: Based on a detailed understanding of the functional domains of osteopontin and an understanding of the role this multifunctional cytokine plays in the regulation of cellular apoptosis, biosynthetic molecules which mimic distinct functions of osteopontin are provided for use in a variety of therapeutic applications, in particular, in the treatment of cancer and inflammatory conditions such as arthritis. In particular, the biosynthetic molecules are useful in the elimination of abnormal or unwanted cells that express at least an integrin receptor and/or that co-express both an integrin and a CD44 receptor. Many of the biosynthetic molecules/peptides disclosed herein are believed to uncouple integrin signaling form CD 44 signaling, resulting in the stabilization of microtubules by down stream activation of rhoB. […] Cells treated with these molecules organize the arrays of disorganized microtubules into parallel bundles and freeze the normal, microtubular, mitotic bundle. As a result, the treated cells form several more asters at various locations with the cell, serving to further strengthen the cell's structure and preventing cell separation.
Many of the biosynthetic molecules/peptides disclosed herein are believed to uncouple integrin signaling form CD 44 signaling. […] Cells treated with these molecules organize the arrays of disorganized into parallel bundles and freeze the normal, microtubular, mitotic bundle. As a result, the treated cells form several more asters at various locations with the cell, serving to further strengthen the cell's structure and preventing cell separation.

[2] = test system: metastatic tumor cell line; experiment: apoptosis assay, flow cytometric analysis of propidium iodide uptake; type: cell-based; settings: apoptosis assays
Description: A first generation osteopontin-derived biosynthetic molecule, oncolysin N, was engineered based on the isolation of a domain of osteopontin sufficient to impart pro-apoptotic activity when isolated away from the naturally-occurring osteopontin polypeptide. In particular, the oncolysin N molecule was designed to include the following domains: (1) a signal sequence (i.e., signal peptide), derived in this instance from the native osteopontin amino acid sequence (i.e., amino acids 1-16 of the human osteopontin-B amino acid sequence set forth as SEQ ID NO:1); (2) a golgi processing domain derived from the native osteopontin amino acid sequence (i.e., amino acids 17-30 of the human osteopontin-B amino acid sequence set forth as SEQ ID NO:1); (3) a pro-apoptotic domain comprising contiguous amino acid residues of human osteopontin-B sufficient to induce apoptosis (i.e., amino acids 147-170 of the human osteopontin-B amino acid sequence set forth as SEQ ID NO:1) yet lacking additional osteopontin-B sequences which are unnecessary for apoptotic activity, or alternatively decrease pro-apoptotic activity, of the biosynthetic molecule; and (4) two linker domains, a first linker domain operably linking the signal sequence to the golgi processing domain, and a second linker domain operably linking the golgi processing domain to the pro-apoptotic domain. The signal sequence and golgi processing domain optimize synthesis, processing through the golgi and secretion of the biosynthetic oncolysin N molecule. […]
Cells are grown in culture and treated with varying doses of exogenous oncolysin N. Apoptosis is determined by flow cytometric analysis according to the uptake of propidium iodide. […] DNA cleavage in apoptotic cells is assessed by flow cytometric analysis, as cells containing hypodiploid nuclei bind less propidium iodide than intact nuclei.
Cellular apoptosis can also be determined using standard criteria in the art such as nuclear condensation, chromatin fragmentation, and viability as assessed by Trypan blue exclusion. […]

[3] = test system: MDA-MB-231 cells; experiment: FragEL apoptotic assay in cells infected with pRetro-oncolysin and induced with Doxycycline; type: cell-based, human; settings: 48 h after infection, induced with 3 ug Doxycycline for 6 hours; versus uninduced cells
Method: 50,000 Breast tumor cells were infected with approximately 500,000 viral particles in DME+10% FBS containing 4 μg/ml polybrene. After 48 h., the MDA-MB-231 cells were induced with 3 ug of Doxycycline for 6 hours in defined media. Apoptosis was assessed using the FragEL™ apoptotic assay. Uninduced cells are viable and labeled blue when viewed at 10× magnification under a light microscope. […] Each experiment was performed in duplicates and repeated 3 times.

[4] = test system: MDA-MB-231 tumor cells; experiment: tubulin staining by indirect fluorescent immunochemistry; type: cell-based, human; settings: induced with 3 μg/ml Doxycycline, six hours; versus uninduced infected cells
Method: Oncolysin 1-infected MDA-MB-231 tumor cells were induced with 3 μg/ml of Doxycycline. After six hours, the cells were fixed in 10% formaldehyde then stained for tubulin using indirect fluorescent immunochemistry.

[5] = test system: MDA-MB-231 Human Breast Cancer Cell; experiment: nuclear stain (H and E) of infected cells; type: cell-based; settings: with or without doxycyclin induction for six hours
Description: Infected cells were stained with H and E without induction with doxycyclin or after induction for six hours.

[6] = test system: SHP-1; experiment: signal transduction pathway in infected cells (FIG. 3), SHP-1; type: cell-based; settings: infected cells compared to control cells
Description: (§1) FIG. 3 depicts an alteration in the signal transduction pathway in cells infected with oncolysin 1/Sophin C as compared to control cells.

[7] = test system: PI-3 kinase; experiment: signal transduction pathway in infected cells (FIG. 3), PI-3 kinase; type: cell-based; settings: infected cells compared to control cells
Description: as §1

[8] = test system: MDA-MB-231 xenografts; experiment: MDA-MB-231 xenograft tumor growth in nude mice (FIG. 4); type: in vivo; settings: for tumor volume: compared to controls
Method: To evaluate the effectiveness of oncolysin 1/Sophin C against primary tumor growth and metastasis, 1×10^7 MDA-MB-231 breast cancer cells were injected subcutaneously into the left flank of nude mice. After six weeks the resulting tumors were aseptically dissected out, minced and 1 mm-tumor pieces were transplanted into the right flank of nude mice using a trocar needle. One weeks later, when tumors measured approximately 10 mm, mice were assigned to different experimental groups. One set of 24 animals bearing MDA-MB-231 xenografts were divided into 3 groups that received the following treatments: A first group of 8 animals were injected with pRetro-oncolysin (1×10^6 viral particles). After one day and weekly thereafter (for 3 weeks) these animals received a weekly injection of the inducing agent Doxycyxlin (1 mg/kg) through the peritoneal cavity. A second group of 8 animals received a weekly injection of Doxycyclin (uninfected tumors) and a third group received a weekly injection of oncolysin protein (10 μg/kg). In another set of experiments, the pRetro-oncolysin was injected into the marrow stroma of tumor bearing mice. After, day one, the animals were treated as above, with weekly injection of Doxycyclin. Tumors were measured once every two days with microcalipers, and tumor volume was calculated as length×width×height×0.5236. Body weight was measured on the day of the injection, 4 days later and weekly thereafter. Four days after the first injection, blood samples were collected from the tail vein using the Unopette™ micro-collection kit. Total leukocyte and platelet counts were determined manually using a hemocytometer. Blood smears stained with the Hema3™ kit were used for assessing absolute numbers of granulocytes and lymphocytes. Treatment-related toxicity was evaluated based on the differences in body weight, liver and kidney marker enzymes, and hematological parameters between treatment groups. 20 weeks after treatment, animals were killed by decapitation under anesthesia. […] Liver, heart, uterus, ovaries, lungs spinal cord and all long bones were evaluated histologically.

[9] = test system: breast, prostate and uterine tumors; experiment: tumor growth in breast, prostate and uterine tumor models, dose response (FIG. 5); type: in vivo
Method: The effect of Sophin C on tumor growth was evaluated for three tumor types, breast, prostate and uterine.

With “GIPVKQADSGSSEEKGGGPPTPVVPTVDTYDGRGDSVVYGLRKKKAARG RRAARGRR (GIPVKQADSGSSEEKGGGPPTPVVPTVDTYDGRGDSVVYGLRKKKAARGRRAARGRR) [SEQ ID NO:10]” the capping of microtubules [1] was “inhibit the capping of microtubules” and the polymerization of microtubules [1] was “induces their unidirectional polymerization”.

In the case of “PGIPVKQADSGSSEEKGGGPGTPVVPTVDTYDGRGDSVVYGLRKKKAARGRRAARGRR (PGIPVKQADSGSSEEKGGGPGTPVVPTVDTYDGRGDSVVYGLRKKKAARGRRAARGRR) [SEQ ID NO:15]”, the capping of microtubules [1] is reported as “inhibit the capping of microtubules” and the polymerization of microtubules [1] is reported as “induces their unidirectional polymerization”.

With “PGIPVKQADSGSSEEKGGGPGTPVVPTVDTYDGRGDSVVYGLRKKKAAR GRRAARGRR (PGIPVKQADSGSSEEKGGGPGTPVVPTVDTYDGRGDSVVYGLRKKKAARGRRAARGRR) [SEQ ID NO:14]” the capping of microtubules [1] was “inhibit the capping of microtubules” and the polymerization of microtubules [1] was “induces their unidirectional polymerization”.

“PYAGRGDSVVYGLKKKNNQKAEPLIGRKKTR [SEQ ID NO:16]” was tested, and the capping of microtubules [1] was “inhibit the capping of microtubules” and the polymerization of microtubules [1] was “induces their unidirectional polymerization”.

For “osteopontin-B: native human osteopontin-B, a preferred splice variant of the human osteopontin gene [reference compound]”, the “apoptotic activity (induction of apoptosis)” value (“apoptotic activity” below) [2] was “no apoptotic activity”.

B1: oncolysin 1/Sophin C: second generation molecule: oncolysin N with synthetic heparin binding domain (RSKK and RGRR) at the C terminus; 71mer (protein)
chain: MRIAVICFCLLGITCAGGGPGIPVKQADSGSSEEKGGGPGTPVVPTVDTYDGRGDSVVYGLRSKKAARGRR
For B1, the “apoptotic activity” value [2] was “dramatically increase apoptotic activity”, the “apoptosis (FragEL staining)” value [3] was “undergo apoptosis” and the tubulin staining [4] was “stabilized tubulin around multi-nuclei”. The multinucleation [5] was “Multinucleation was observed only in induced cells”, the SHP-1 protein expression [6] was “decreased SHP-1 protein expression” and the PI-3 kinase expression [7] was “increased PI-3 kinase expression”. The “health of treated mice” value ([8]; all treated mice, after approximately 6 months, control animals died or were sacrificed) was “remained healthy”, the tumor volume ([8]; group 1: pRetro-oncolysin 1×10^6 viral particles plus weekly Doxycyclin 1 mg/kg) was “striking reduction in tumor volume” and the tumor volume ([8]; group 3: weekly injection of oncolysin protein 10 μg/kg) was “striking reduction in tumor volume”. For the same molecule, the tumor volume ([9]; 50 μg/kg protein) was “reduction in tumor volume”, the tumor volume ([9]; 500 μg/kg protein) was “reduction in tumor volume” and the capping of microtubules [1] was “inhibit the capping of microtubules”. For the same molecule, the polymerization of microtubules [1] was “induces their unidirectional polymerization”.

B2: MRIAVICFCLLGITCAGGGPGIPVKQADSGSSEEKGGGPGTPVVPTVDTY DGRGDSVVYGLRSKKAARGRRAARGRR (protein)
chain: MRIAVICFCLLGITCAGGGPGIPVKQADSGSSEEKGGGPGTPVVPTVDTYDGRGDSVVYGLRSKKAARGRRAARGRR
B2 was tested, and the capping of microtubules [1] was “inhibit the capping of microtubules” and the polymerization of microtubules [1] was “induces their unidirectional polymerization”.

B3: MRIAVICFCLLGITCAGGGPGIPVKQADSGSSEEKGGGPGTPVVPTVDTY DGRGDSVVYGLRKKKAARGRRAARGRR (protein)
chain: MRIAVICFCLLGITCAGGGPGIPVKQADSGSSEEKGGGPGTPVVPTVDTYDGRGDSVVYGLRKKKAARGRRAARGRR
B3 was tested, and the capping of microtubules [1] was “inhibit the capping of microtubules” and the polymerization of microtubules [1] was “induces their unidirectional polymerization”.

B4: … VYGLRKKKAARGRRAARGRR (protein)
chain: HHGHHGGHHHPGIPVKQADSGSSEEKGGGPPTPVVPTVDTYDGRGDSVVYGLRKKKAARGRRAARGRR
modifications: His tag
In the case of B4, the capping of microtubules [1] is reported as “inhibit the capping of microtubules” and the polymerization of microtubules [1] is reported as “induces their unidirectional polymerization”.

B5: Oncolysin 2: second generation molecule: oncolysin N with a synthetic collagen binding domain at the C terminus (protein)
chain: MRIAVICFCLLGITCAGGGPGIPVKQADSGSSEEKGGGPGTPVVPTVDTYDGRGDSVVYGLRSKPAGAAGGPAGPAGPAGPAGPAGP
B5 was tested, and the “apoptotic activity” value [2] was “more effective at promoting apoptosis than oncolysin N”.
